{"source": "paper PMC7290885", "origin": "cited, not measured here", "key": {"[1]": {"biological_target": "GLP-1R (Homo sapiens) (UniProt P43220)", "sequence (P43220 24-463)": "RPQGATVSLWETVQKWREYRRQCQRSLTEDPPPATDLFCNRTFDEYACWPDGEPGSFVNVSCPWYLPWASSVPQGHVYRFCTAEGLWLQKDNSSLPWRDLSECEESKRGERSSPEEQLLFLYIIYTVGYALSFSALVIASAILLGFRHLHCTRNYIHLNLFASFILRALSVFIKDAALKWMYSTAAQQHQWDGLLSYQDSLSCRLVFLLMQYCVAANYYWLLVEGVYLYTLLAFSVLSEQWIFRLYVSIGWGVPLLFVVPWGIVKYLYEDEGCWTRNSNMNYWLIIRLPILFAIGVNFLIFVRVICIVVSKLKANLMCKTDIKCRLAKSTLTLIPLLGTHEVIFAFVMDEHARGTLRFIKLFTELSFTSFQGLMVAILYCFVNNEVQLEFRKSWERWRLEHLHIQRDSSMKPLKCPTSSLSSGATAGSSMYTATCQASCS"}, "[2]": {"biological_target": "GLP-1R (Homo sapiens) (UniProt P43220)", "remark": "listed apart in the source"}, "[3]": {"biological_target": "GLP-1R (Homo sapiens) (UniProt P43220)", "remark": "listed apart in the source"}, "[4]": {"biological_target": "GLP-1R (Homo sapiens) (UniProt P43220)", "remark": "listed apart in the source"}}, "note": "Read-outs that look alike come from different tables or passages of the source."}
{"substance": "LCA-Di (exendin-4 derivative) (from UniProt P26349)", "values": [{"measurement": "Kd", "setting": "[1]", "result": 71.7, "unit": "nM"}]}
{"substance": "LCA-M1 (exendin-4 derivative) (from UniProt P26349)", "values": [{"measurement": "Kd", "setting": "[2]", "result": 0.47, "unit": "nM"}]}
{"substance": "LCA-M2 (exendin-4 derivative) (from UniProt P26349)", "values": [{"measurement": "Kd", "setting": "[3]", "result": 0.55, "unit": "nM"}]}
{"substance": "exendin-4 (from UniProt P26349)", "values": [{"measurement": "Kd", "setting": "[4]", "result": 0.14, "unit": "nM"}]}
